Source: PMC4251702, “Plasmodium falciparum aldolase and the C-terminal cytoplasmic domain of certain apical organellar proteins promote actin polymerization” (Molecular and Biochemical Parasitology, 2014)

Key:
[1] = target: rabbit muscle F-actin, biotinylated (rabbit, UniProt P68135 1-377); test: BLI; details: both partners purified
[2] = target: rabbit muscle G-actin, biotinylated (rabbit, UniProt P68135 1-377); test: BLI; details: both partners purified

B1: Plasmodium falciparum aldolase (enzyme)
chain: MAHCTEYMNAPKKLPADVAEELATTAQKLVQAGKGILAADESTQTIKKRFDNIKLENTIENRASYRDLLFGTKGLGKFISGAILFEETLFQKNEAGVPMVNLLHNENIIPGIKVDKGLVNIPCTDEEKSTQGLDGLAERCKEYYKAGARFAKWRTVLVIDTAKGKPTDLSIHETAWGLARYASICQQNRLVPIVEPEILADGPHSIEVCAVVTQKVLSCVFKALQENGVLLEGALLKPNMVTAGYECTAKTTTQDVGFLTVRTLRRTVPPALPGVVFLSGGQSEEEASVNLNSINALGPHPWALTFSYGRALQASVLNTWQGKKENVAKAREVLLQRAEANSLATYGKYKGGAGGENAGASLYEKKYVY
notes: also called Pf aldolase; recombinant Pf aldolase; source: E. coli BL21 (pGEX-5X), purified, GST tag removed
- Kd [1]: 365 nM
- Kd [2]: 330 nM
